# Data: US7812117B2, “Vasostatin as marrow protectant” (The United States of America as represented by the …, priority 1998, dated 2010)
# Assays:
# [1] = tested on: bone marrow hematopoietic cells; assay: Radiation-induced toxicity in irradiated tumor-bearing BALB/c nu/nu mice (appearance, femural bone marrow histology); type: in vivo, mouse
# Experimental: This healthier appearance was due, in part, to the larger weight of mice treated with vaso compared to the controls.
# To examine this further, 7 week old BALB/c nu/nu mice were first irradiated with 400 rad. After 24 hr, the mice were incoculated s.c. with the human Burkitt lymphoma cell line CA46. One group of mice (n=12) was treated s.c. with the control protein maltose binding protein (MBP, 40 μg/mouse/day), whereas another group (n=12) was treated s.c. with MBP-vaso (60 μg/mouse/day). Some of the mice from each group were killed on day 15, whereas the other mice were kept for up to 2.5 months.
# murine bone marrow cells [2] = assay: Murine bone marrow cell proliferation in vitro ([3H] thymidine incorporation)
# murine bone marrow cells [3] = assay: Murine bone marrow cell number in culture (Owen's reagent formazan absorbance at 490 nm); type: cell-based, mouse
# Experimental: FIG. 7 is a series of bar graphs showing the effects of vaso on growth-factor induced proliferation of bone marrow cells with or without methotrexate. Bone marrow cells populations, obtained from the femural cavities of C57BL/6NCR mice (3.5 months of age), were cultured in 24 well tissue culture plates in culture medium alone or medium containing a mixture of the growth factors (GF) IL-3 (20 ng/ml), IL-6 (100 ng/ml) and Stem Cell Factor (100 ng/ml). Vaso was added to the cultures at concentrations ranging between 1.25 and 10 μg/ml. Methotrexate was added to the cultures at the concentration of 100 nM. FIG. 7A is a bar graph of cell proliferation as measured by ^3H thymidine incorporation during the final 22 hr of a 7-day culture. The results reflect the mean cpm of triplicate cultures. FIG. 7B is a bar graph of cell numbers measured as mean absorbance (490 nM) after conversion of Owen's reagent into colored formazan product (One Solution Reagent, Promega).
# FIG. 9 is a series of bar graphs showing that vaso increases bone marrow cell proliferation in vitro. Bone marrow cells populations, obtained from the femural cavities of C57BL/6NCR mice (8 weeks of age), were cultured in culture medium alone or in medium supplemented with a mixture of IL-3 (20 ng/ml), IL-6 (100 ng/ml) and Stem Cell Factor (SF, 100 ng/ml). […] FIG. 9A is a bar graph of cell proliferation as measured by ^3H thymidine incorporation during the final 20-23 hr of a 4, 5 or 6-day culture. FIG. 9B is a bar graph of cell number measured as absorbance (490 nM) after conversion of Owen's reagent into colored formazan product (One Solution Reagent, Promega).
# In the absence of exogenously added growth factors, vaso at the highest concentration used (10 μg/ml) had low level stimulatory effect (approximately 2-fold stimulation of background cpm).
# Stimulation of bone marrow cell proliferation by vaso was associated with an increased number of bone marrow cells, measured as absorbance from the conversion of Owen's reagent into a colored formazan product (One Solution Reagent, Promega, Madison. Wis.). […]
# murine bone marrow cells [4] = tested on: murine bone marrow cells
# [5] = tested on: peripheral white blood cells; assay: Peripheral white blood cell counts after total body irradiation of C57BL/6N mice; type: in vivo; conditions: vaso 300 μg/mouse/day s.c.
# Experimental: In a subsequent experiment, groups of 8 week old C57BL/6N mice were irradiated with either 300 or 400 rad total body irradiation and treated the mice daily with s.c. inoculations of either buffer of vaso (300 μg/mouse/day). Peripheral white blood cell counts were obtained on days 5 and 9 post irradiation. On day 5, the total white cell count in the mice that had received 300 rad total body irradiation and had been treated with buffer was 1.2×10^3/mm^3 as opposed to 2.14×10^3/mm^3 in the mice treated with vaso. Also on day 5 post-irradiation, the total white cell count in the mice that had received 400 rad total body irradiation and had been treated with buffer was 0.66×10^3/mm^3 as opposed to 1.22×10^3/mm^3 in the mice treated with vaso. On day 9 post irradiation, the total white cell count in the mice that had received 400 rad total body irradiation and had been treated with buffer was 0.79×10^3/mm^3 as opposed to 1.37×10^3/mm^3 in the mice treated with vaso.
# [6] = tested on: fetal bovine heart endothelial cells (FBHEC); conditions: as previously reported (Pike et al., 1998; 1999); cited from earlier work
# [7] = vaso 10 μg/ml in the presence of growth factors
molecule,measurement,setting,value
"vaso: N-terminal domain of calreticulin (amino acids 1-180, SEQ ID NO:3); given as fusion protein with maltose binding protein, MBP-vaso (protein, Vasostatin) EPAVYFKEQFLDGDGWTSRWIESKHKSDFGKFVLSSGKFYGDEEKDKGLQTSQDARFYALSASFEPFSNKGQTLVVQFTVKHEQNIDCGGGYVKLFPNSLDQTDMHGDSEYNIMFGPDICGPGTKKVHVIFNYKGKNVLINKDIRCKDDEFTHLYTLIVRPDNTYEVKIDNSQVESGSLE",appearance of irradiated mice,"[1]; BALB/c nu/nu mice, 400-450 rad, injected s.c. with human tumor cell lines, vs buffer control",appeared healthier
same,femural bone marrow histology after 400 rad total body irradiation,[1]; MBP 40 μg/mouse/day or MBP-vaso 60 μg/mouse/day s.c. after irradiation,can protect the hematopoietic tissue from radiation-induced toxicity
same,murine bone marrow cell proliferation with or without cisplatinum,"murine bone marrow cells [2]; Vaso 10 μg/ml, IL-3 (30 μg/ml), cisplatinum between 5 and 0.02 nM",enhanced murine bone marrow cell proliferation
same,growth of murine hematopoietic cells after 5 or 6 days of culture,"murine bone marrow cells [2]; all used at 10 μg/ml, IL-3 20 ng/ml",stimulated the growth
same,bone marrow cell proliferation vs growth factors alone,"murine bone marrow cells [2]; day 5, vaso 12.5-50 μg/ml added to IL-3 plus IL-6 plus Stem Cell Factor",21-54 fold
same,mafosfamide concentrations at which growth stimulatory effect of vaso was appreciable,murine bone marrow cells [2]; mafosfamide added after 3 days of culture,≤ 8 µg/mL
same,increase in cell proliferation on day 5,"murine bone marrow cells [2]; unseparated marrow, vaso 10 μg/ml, IL-3 20 ng/ml",3.4 fold
same,direct stimulation of bone marrow cell proliferation,"murine bone marrow cells [2]; vaso 10 μg/ml in medium alone, no growth factors",failed to directly stimulate
same,promotion of bone marrow cell proliferation on day 5,murine bone marrow cells [2]; [7],39 fold
same,promotion of bone marrow cell proliferation on day 6,murine bone marrow cells [2]; [7],17 fold
same,promotion of bone marrow cell proliferation on day 4,"murine bone marrow cells [2]; vaso 10 μg/ml in the presence of growth factors (IL-3, IL-6, stem cell factor)",6.5 fold
same,stimulation of background cpm,"murine bone marrow cells [2]; vaso 10 μg/ml, absence of exogenously added growth factors, 7 day culture",approximately 2 fold
same,promotion of bone marrow cell proliferation in the presence of Etoposide,"murine bone marrow cells [2]; vaso 10 μg/ml, Etoposide 77 nM, growth factors",to the same or greater degree than in the absence of Etoposide
same,increase of IL-3-induced bone marrow proliferation in the presence of Etoposide,"murine bone marrow cells [2]; vaso 10 μg/ml, Etoposide 385-15.4 nM, day 5",evident even in the presence of Etoposide
same,"bone marrow cell proliferation induced by IL-3, day 5","murine bone marrow cells [2]; vaso 10 μg/ml, IL-3 20 ng/ml",enhanced bone marrow cell proliferation
same,enhancement of IL-3 induced response on day 4,"murine bone marrow cells [2]; vaso 10 μg/ml, IL-3 20 ng/ml",approximately 3 fold
same,enhancement of proliferative response on day 5 or 6,"murine bone marrow cells [2]; vaso 10 μg/ml, IL-3 or combination of IL-3, IL-6 and Stem Cell Factor",7-16 fold
same,proliferative response on day 3,"murine bone marrow cells [2]; vaso 10 μg/ml, combination of IL-3, IL-6 and Stem Cell Factor","enhanced the response induced by the combination of IL-3, IL-6 and Stem Cell Factor slightly"
same,proliferation of bone marrow cells exposed to mafosfamide,"murine bone marrow cells [2]; vaso 12.5 μg/ml, growth factors, 6 days culture",markedly enhanced
same,bone marrow cell proliferation in the presence of methotrexate,"murine bone marrow cells [2]; vaso 0.25-10 μg/ml, methotrexate 100 nM and growth factors, 7 day culture",dose-dependently stimulated
same,number of cells in culture,murine bone marrow cells [3]; vaso 10 μg/ml added to medium alone,increased only minimally
same,number of cells counted after 5 days of culture,"murine bone marrow cells [3]; vaso 10 μg/ml, growth factors (IL-3, IL-6 and Stem Cell Factor) either alone or with etoposide 77 nM",increased significantly
same,number of living bone marrow cells in culture,murine bone marrow cells [3]; vaso with methotrexate 100 nM and growth factors,increase in the number of living bone marrow cells
same,bone marrow cell proliferation induced by IL-3 at the highest dose of cisplatinum,murine bone marrow cells [4],minimal
same,"total white cell count, day 5 post irradiation","[5]; 300 rad total body irradiation, buffer 1.2×10^3",2.14×10^3 /mm^3
same,"total white cell count, day 5 post irradiation","[5]; 400 rad total body irradiation, buffer 0.66×10^3",1.22×10^3 /mm^3
same,"total white cell count, day 9 post irradiation","[5]; 400 rad total body irradiation, buffer 0.79×10^3",1.37×10^3 /mm^3
same,proliferation of primary cultures of FBHEC,[6],consistently inhibited the proliferation
